B1: N49 (synthetic construct) (protein)
chain: MSMSTITNHMPTAELQALDAAHHMHPFTTNNELAEKGARVITRAKGVWLTDSEGEEILDAMAGLWCVNIGYGRDELAEVAARQMRELPYYNTFFQTTHVPAIALAAKLAELAPGDLNHVFFAGGGSEANDTNIRMVRTYWAEKGKPEKNIIISRKNAYHGSTVGSASLGGMAGMHAQGGLPIPDIHHIDQPNWWAEGRPGDTGMTPEEFGLARARELEQAILELGEDRVAAFIAEPVQGAGGVIVAPDTYWPEIQRICDKYEILLIADEVICGFGRTGNWFGSQTMGIRPHIMTIAKGLSSGYAPIGGSIVCDEVAEVIIGGKCEFNHGYTYSGHPVAAAVALENLRILEEENIIDHVRNVAAPYLKEKWEALTDHPLVGEAKIVGMMGSIALTPDKATRAAFASEPGTVGYICRERCFANNLVMRHVGDRMIISPPLVITPEEIDTLIERARKSLDEAHAELKRQGLMKAAG
notes: pET22b(+), E. coli BL21(DE3), Ni-NTA purified
B2: Sp-ATA (Ruegeria pomeroyi DSS-3) (protein)
chain: MATITNHMPTAELQALDAAHHLHPFSANNALGEEGTRVITRARGVWLNDSEGEEILDAMAGLWCVNIGYGRDELAEVAARQMRELPYYNTFFKTTHVPAIALAQKLAELAPGDLNHVFFAGGGSEANDTNIRMVRTYWQNKGQPEKTVIISRKNAYHGSTVASSALGGMAGMHAQSGLIPDVHHINQPNWWAEGGDMDPEEFGLARARELEEAILELGENRVAAFIAEPVQGAGGVIVAPDSYWPEIQRICDKYDILLIADEVICGFGRTGNWFGTQTMGIRPHIMTIAKGLSSGYAPIGGSIVCDEVAHVIGKDEFNHGYTYSGHPVAAAVALENLRILEEENILDHVRNVAAPYLKEKWEALTDHPLVGEAKIVGMMASIALTPNKASRAKFASEPGTIGYICRERCFANNLIMRHVGDRMIISPPLVITPAEIDEMFVRIRKSLDEAQAEIEKQGLMKSAA
notes: wild type, pET22b(+), E. coli BL21(DE3), Ni-NTA purified (His-tag), homodimer
B3: N50 (synthetic construct) (protein)
chain: MSMSTITNHMPTAELQALDAAHHMHPFSTNNELAEEGVRVITRAKGVWLTDSEGEEILDAMAGLWCVNIGYGRDELAEVAARQMRELPYYNTFFKTTHVPAIALAQKLAELAPGDLNHVFFAGGGSEANDTNIRMVRTYWAEKGKPEKNVIISRKNAYHGSTVGSASLGGMAGMHAQGGIPIPDIHHINQPNWWAEGRPGDTGMTPEEFGLARARELEEAILELGEDRVAAFIAEPVQGAGGVIVAPDTYWPEIQRICDKYEILLIADEVICGFGRTGNWFGSQTMGIRPHIMTIAKGLSSGYAPIGGSIVCDEVAEVIIGGKCEFNHGYTYSGHPVAAAVALENLRILEEENIIDHVRNVAAPYLKEKWEALTDHPLVGEAKIVGMMGSIALTPDKATRAKFASEPGTIGYICRERCFANNLVMRHVGDRMIISPPLVITPEEIDEMFVRIRKSLDEAHAEILRQGLMKAAG
notes: as for B1

Key:
[1] = substrate: C[C@H](N)c1ccccc1; experiment: purified protein; type: biochemical, synthetic construct; details: co-substrate sodium pyruvate; 5 mM PLP; (S)-PEA 0.1-15 mM
[2] = substrate: C[C@H](N)c1ccccc1; experiment: purified protein; type: biochemical, Ruegeria pomeroyi; details: co-substrate sodium pyruvate; 5 mM PLP; (S)-PEA 0.1-15 mM

Protein | Km [1] [mM] | kcat [1] [s⁻¹] | Km [2] [mM] | kcat [2] [s⁻¹]
B1 | 2.02 ± 0.19 | 1.10 ± 0.03 | – | –
B2 | – | – | 3.64 ± 0.31 | 6.33 ± 0.19
B3 | 6.22 ± 1.01 | 0.39 ± 0.03 | – | –

Reference: publication PMC12247033, “Exploring the Stability and Substrate Profile of Transaminase from Silicibacter pomeroyi with Ancestral Sequence Reconstruction” (Chembiochem, 2025)
